Data: article PMC5369232

T1: orange carotenoid protein (OCP) of Synechocystis sp. PCC 6803 (Synechocystis sp. PCC 6803), P74102
T1 chain: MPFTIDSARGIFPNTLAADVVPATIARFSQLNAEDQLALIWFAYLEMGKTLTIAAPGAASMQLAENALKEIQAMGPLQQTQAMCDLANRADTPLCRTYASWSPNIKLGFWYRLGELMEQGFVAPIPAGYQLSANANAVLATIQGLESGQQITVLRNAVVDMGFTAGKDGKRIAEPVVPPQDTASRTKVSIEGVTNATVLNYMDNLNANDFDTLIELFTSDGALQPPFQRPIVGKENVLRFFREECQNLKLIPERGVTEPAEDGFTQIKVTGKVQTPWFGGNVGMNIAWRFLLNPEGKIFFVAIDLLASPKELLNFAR


Tests used:
[1] = target: fluorescence recovery protein (FRP, Slr1964) of Synechocystis sp. PCC 6803, His6-tagged (Synechocystis sp. PCC 6803) (UniProt P74103); experiment: native MS
[2] = target: T1, orange carotenoid protein (OCP) of …; experiment: native MS; conditions: remark: other sources report otherwise

Row | stoichiometry N [1] | stoichiometry N [2] | Molecule
1 | 2 | – | fluorescence recovery protein (FRP, Slr1964) of Synechocystis sp. PCC 6803, His6-tagged (from UniProt P74103 2-109) (natural protein)
2 | – | 2 | orange carotenoid protein (OCP) of Synechocystis sp. PCC 6803, P74102 1-317 (natural protein) MPFTIDSARGIFPNTLAADVVPATIARFSQLNAEDQLALIWFAYLEMGKTLTIAAPGAASMQLAENALKEIQAMGPLQQTQAMCDLANRADTPLCRTYASWSPNIKLGFWYRLGELMEQGFVAPIPAGYQLSANANAVLATIQGLESGQQITVLRNAVVDMGFTAGKDGKRIAEPVVPPQDTASRTKVSIEGVTNATVLNYMDNLNANDFDTLIELFTSDGALQPPFQRPIVGKENVLRFFREECQNLKLIPERGVTEPAEDGFTQIKVTGKVQTPWFGGNVGMNIAWRFLLNPEGKIFFVAIDLLASPKELLNFAR
